In patent US10131702B2, “Glucagon-GLP-1-GIP triple agonist compounds” (priority 2013, dated 2018):
Read-outs that look alike come from different tables or passages of the source. Numbered stars: 1 amine (or outer) side, 2 acyl side, 3 side chain; on linkers, the order of the positions; unused ones are H or OH. Square brackets hold non-standard residues; d marks the D form. Side chains are listed from the residue outwards. Peptide text beside a SMILES is read from it. * marks the point of attachment. C18 diacid = O=C(O)CCCCCCCCCCCCCCCCC(=O)*; γGlu = O=C(O)[C@H](CCC(=O)[*:2])N[*:1]; Stearoyl = CCCCCCCCCCCCCCCCCC(=O)*; Aib = CC(C)(N)C(=O)O

What was measured:
[1] = target: human GIP receptor (human) (UniProt P48546); assay: cell-based or functional assay
[2] = target: human glucagon receptor (human) (UniProt P47871); assay: cell-based or functional assay
human GCG R = target: T1, human GCG R (Homo sapiens, UniProt P47871); assay: cAMP induction in HEK293 cells expressing human GCG R (AlphaScreen cAMP kit); assay type: cell-based; settings: Table 2; average EC50, cAMP, HEK293 cells expressing human GCG R; read-out: GCG R (EC50 in nM)
T1 construct: expressed in transfected cells

human GLP-1 R = target: T2, human GLP-1 R (Homo sapiens, UniProt P43220); assay: cAMP induction in HEK293 cells expressing human GLP-1 R (AlphaScreen cAMP kit); assay type: cell-based; settings: average EC50, cAMP, HEK293 cells expressing human GLP-1 R, read-out: GLP1 R (EC50 in nM)
T2 construct: expressed in transfected cells
Description: Briefly, HEK293 cells expressing the human GIP R, GLP-1 R or GCG R (stable cell lines generated through transfection of the cDNA for human GIP R, GLP-1 R or GCG R and selection of stable clones) were seeded at 30,000 cells/well in 96-well microtiter plates coated with 0.01% poly-L-lysine, and grown for 1 day in culture in 200 μl growth medium (DMEM, 10% FCS, Penicillin (100 IU/ml), Streptomycin (100 μg/ml)). On the day of analysis, growth medium was removed and the cells were washed once with 150 μl Tyrode's buffer (Tyrode's Salts (9.6 g/l), 10 mM HEPES, pH 7.4). […] The Assay buffer was removed and cells are lysed in 80 μl Lysis buffer (0.1% w/v BSA, 5 mM HEPES, 0.3% v/v Tween-20) per well. From each well 10 μl of lysed cells were transferred to a 384-well plate and mixed with 15 μl bead-mix (1 Unit/15 μl anti-cAMP Acceptor Beads, 1 Unit/15 μl Donor Beads, and 1 Unit/15 μl Biotinylated cAMP in Assay Buffer). The plates were mixed and incubated in the dark for an hour at room temperature before measuring using an Envision™ plate reader (Perkin-Elmer).
The resulting cAMP curves were plotted as absolute cAMP concentrations (nM) over log (test compound concentration) and analyzed using the curve fitting program XLfit.
Parameters calculated to describe both the potency as well as the agonistic activity of each test compound on the receptors were:
EC50, a concentration resulting in a half-maximal elevation of cAMP levels, reflecting the potency of the test compound.

in vivo = assay: in vivo; design: species or system C57BL/6J mice; settings: male, C57BL/6J, mouse, iv, 200 nmol/kg
Text: Pharmacokinetics of Selected Compounds in Mice Method C57BL/6J mice (males with a body weight of approximately 25 g) were given a single intravenous (i.v.) bolus of each peptide to be tested. […] Blood samples were drawn by sublingual bleeding. The dosing vehicle was a phosphate buffer containing mannitol (pH 7.5). At each sampling time point, samples from two mice were drawn, i.e. 16 mice were included for each compound. The mice were euthanized immediately after blood sampling by cervical dislocation. Plasma samples were analyzed after solid phase extraction (SPE) or precipitation by liquid chromatography mass spectrometry (LC-MS/MS). Mean plasma concentrations were used for calculation of the pharmacokinetic parameters using the non-compartmental approach in Phoenix WinNonlin 6.3. Plasma terminal elimination half-life (T½) was determined as […] where λz is the magnitude of the slope of the log linear regression of the log concentration versus time profile during the terminal phase.

human GIP R = target: T3, human GIP R (Homo sapiens, UniProt P48546); assay: cAMP induction in HEK293 cells expressing human GIP R (AlphaScreen cAMP kit); assay type: cell-based; settings: read-out: GIP R (EC50 in nM)
T3 construct: expressed in transfected cells
T3 sequence (P48546 22-466): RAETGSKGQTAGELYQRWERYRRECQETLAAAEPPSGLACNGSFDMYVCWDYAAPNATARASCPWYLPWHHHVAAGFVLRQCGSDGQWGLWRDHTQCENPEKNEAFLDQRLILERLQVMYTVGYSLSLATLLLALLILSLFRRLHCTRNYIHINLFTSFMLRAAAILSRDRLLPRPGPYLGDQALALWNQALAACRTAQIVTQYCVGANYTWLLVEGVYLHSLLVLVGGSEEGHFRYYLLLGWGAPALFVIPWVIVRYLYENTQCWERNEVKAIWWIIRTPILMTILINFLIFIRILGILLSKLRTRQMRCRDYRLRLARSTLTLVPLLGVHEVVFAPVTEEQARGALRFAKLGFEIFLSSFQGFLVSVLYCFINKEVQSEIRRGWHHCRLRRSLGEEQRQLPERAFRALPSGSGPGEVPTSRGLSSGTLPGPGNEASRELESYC

human GIP receptor [3] = target: T4, human GIP receptor (human, UniProt P48546 22-466); assay: cell-based or functional assay
T4 sequence: T3 sequence (P48546 22-466)

human glucagon receptor [4] = target: T5, human glucagon receptor (human, UniProt P47871 26-477); assay: cell-based or functional assay
[5] = target: T6, human glucagon-like peptide 1 receptor (human, UniProt P43220 24-463); assay: cell-based or functional assay
human GIP receptor [6] = target: T4, human GIP receptor; assay: cell-based or functional assay; remark: listed apart in the source
human glucagon receptor [7] = target: T5, human glucagon receptor; assay: cell-based or functional assay; remark: listed apart in the source
[8] = target: T6, human glucagon-like peptide 1 receptor; assay: cell-based or functional assay; remark: listed apart in the source
[9] = target: human glucagon-like peptide 1 receptor (human) (UniProt P43220); assay: cell-based or functional assay
[10] = target: human glucagon-like peptide 1 receptor (human) (UniProt P43220); assay: cell-based or functional assay; remark: listed apart in the source
[11] = target: human GIP receptor (human) (UniProt P48546); assay: cell-based or functional assay; remark: listed apart in the source
[12] = Table 2b (most comprehensive data)
[13] = Table 2b (most comprehensive data), average EC50, cAMP

Chain of human glucagon receptor (human) (P47871 26-477): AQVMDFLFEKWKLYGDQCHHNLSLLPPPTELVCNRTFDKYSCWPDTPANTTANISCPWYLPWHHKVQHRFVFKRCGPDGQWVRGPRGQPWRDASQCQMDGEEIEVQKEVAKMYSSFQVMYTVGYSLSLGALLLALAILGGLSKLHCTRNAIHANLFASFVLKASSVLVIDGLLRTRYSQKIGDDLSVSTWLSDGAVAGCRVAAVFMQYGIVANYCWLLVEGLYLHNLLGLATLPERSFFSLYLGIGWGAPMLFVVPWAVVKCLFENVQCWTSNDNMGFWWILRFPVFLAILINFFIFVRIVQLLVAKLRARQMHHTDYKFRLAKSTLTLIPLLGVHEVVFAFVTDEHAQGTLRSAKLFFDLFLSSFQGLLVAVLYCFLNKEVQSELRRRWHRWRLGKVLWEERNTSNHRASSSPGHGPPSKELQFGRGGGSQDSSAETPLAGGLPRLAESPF
T2 sequence (P43220 24-463): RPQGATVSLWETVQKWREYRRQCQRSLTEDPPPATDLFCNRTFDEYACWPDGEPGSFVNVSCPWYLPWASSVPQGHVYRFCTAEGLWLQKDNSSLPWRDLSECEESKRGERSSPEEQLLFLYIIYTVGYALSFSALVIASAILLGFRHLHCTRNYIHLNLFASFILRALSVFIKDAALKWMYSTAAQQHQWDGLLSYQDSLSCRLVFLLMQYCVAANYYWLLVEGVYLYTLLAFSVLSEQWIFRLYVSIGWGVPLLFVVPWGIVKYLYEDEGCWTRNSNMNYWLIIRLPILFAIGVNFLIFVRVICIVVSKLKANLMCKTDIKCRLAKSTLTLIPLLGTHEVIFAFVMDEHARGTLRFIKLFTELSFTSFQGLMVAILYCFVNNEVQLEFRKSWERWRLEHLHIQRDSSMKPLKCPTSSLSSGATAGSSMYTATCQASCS
Chain of human glucagon-like peptide 1 receptor (human) (P43220 24-463): as above
T1 sequence (P47871 26-477): as the sequence (P47871 26-477) above
T5 sequence (P47871 26-477): as above

In the case of “Exendin-4 (from UniProt P26349 48-86) (peptide)”, the EC50 (cAMP induction) [1] is reported as 4 pM and the EC50 (cAMP induction) [2] is reported as greater than 10000 pM.

With `CCCCCCCCCCCCCCCC(=O)N[C@@H](CCC(=O)NCCCC[C@H](NC(=O)[C@H](CCC(=O)O)NC(=O)[C@H](CC(=O)O)NC(=O)[C@H](CC(C)C)NC(=O)[C@H](Cc1ccc(O)cc1)NC(=O)[C@@H](NC(=O)[C@H](CO)NC(=O)[C@H](Cc1ccc(O)cc1)NC(=O)[C@H](CC(=O)O)NC(=O)[C@H](CO)NC(=O)[C@@H](NC(=O)[C@H](Cc1ccccc1)NC(=O)[C@@H](NC(=O)CNC(=O)[C@H](CCC(N)=O)NC(=O)C(C)(C)NC(=O)[C@@H](N)Cc1ccc(O)cc1)[C@@H](C)O)[C@@H](C)O)[C@@H](C)CC)C(=O)N[C@@H](C)C(=O)N[C@@H](C)C(=O)N[C@@H](Cc1c[nH]cn1)C(=O)N[C@@H](CC(=O)O)C(=O)N[C@@H](Cc1ccccc1)C(=O)N[C@H](C(=O)N[C@@H](CCC(=O)O)C(=O)N[C@@H](Cc1c[nH]c2ccccc12)C(=O)N[C@@H](CC(C)C)C(=O)N[C@@H](CC(C)C)C(=O)N[C@@H](CO)C(=O)N[C@@H](C)C(N)=O)C(C)C)C(=O)O` [Compound 28] (HELM PEPTIDE1{Y.[Aib].Q.G.T.F.T.S.D.Y.S.I.Y.L.D.E.K.A.A.H.D.F.V.E.W.L.L.S.A.[am]}|PEPTIDE2{[CCCCCCCCCCCCCCCC(=O)[*:2]].[gGlu]}$PEPTIDE1,PEPTIDE2,17:R3-2:R2$$$V2.0) the EC50 (human GCG R) was 0.16 nM, the EC50 (human GLP-1 R; Table 2) was 0.058 nM and the EC50 (human GLP-1 R; [12]) was 0.16 nM. The half-life (in vivo) was 7.8 h, the EC50 (human GIP R; Table 2, average EC50, cAMP) was 0.054 nM and the EC50 (human GIP R; [13]) was 0.058 nM.

With `CCCCCCCCCCCCCCCC(=O)N[C@@H](CCC(=O)NCCCC[C@H](NC(=O)[C@H](CCCCN)NC(=O)[C@H](CCC(=O)O)NC(=O)[C@H](CC(C)C)NC(=O)[C@H](Cc1ccc(O)cc1)NC(=O)[C@@H](NC(=O)[C@H](CO)NC(=O)[C@H](Cc1ccc(O)cc1)NC(=O)[C@H](CC(=O)O)NC(=O)[C@H](CO)NC(=O)[C@@H](NC(=O)[C@H](Cc1ccccc1)NC(=O)[C@@H](NC(=O)CNC(=O)[C@H](CCC(N)=O)NC(=O)C(C)(C)NC(=O)[C@@H](N)Cc1ccc(O)cc1)[C@@H](C)O)[C@@H](C)O)[C@@H](C)CC)C(=O)N[C@@H](C)C(=O)N[C@@H](C)C(=O)N[C@@H](CCCCN)C(=O)N[C@@H](CCC(=O)O)C(=O)N[C@@H](Cc1ccccc1)C(=O)N[C@H](C(=O)N[C@@H](CCC(=O)O)C(=O)N[C@@H](Cc1c[nH]c2ccccc12)C(=O)N[C@@H](CC(C)C)C(=O)N[C@@H](CC(C)C)C(=O)N[C@@H](CO)C(=O)N[C@@H](C)C(=O)NCC(=O)N1CCC[C@H]1C(=O)N[C@@H](CO)C(=O)N[C@@H](CO)C(=O)NCC(=O)N[C@@H](C)C(=O)N1CCC[C@H]1C(=O)N1CCC[C@H]1C(=O)N1CCC[C@H]1C(=O)N[C@@H](CO)C(N)=O)C(C)C)C(=O)O` [Compound 32] (HELM PEPTIDE1{Y.[Aib].Q.G.T.F.T.S.D.Y.S.I.Y.L.E.K.K.A.A.K.E.F.V.E.W.L.L.S.A.G.P.S.S.G.A.P.P.P.S.[am]}|PEPTIDE2{[CCCCCCCCCCCCCCCC(=O)[*:2]].[gGlu]}$PEPTIDE1,PEPTIDE2,17:R3-2:R2$$$V2.0) the EC50 (human GCG R) was 0.15 nM, the EC50 (human GLP-1 R; Table 2) was 0.015 nM and the EC50 (human GLP-1 R; [12]) was 0.15 nM. For the same molecule, the half-life (in vivo) was 4.1 h, the EC50 (human GIP R; Table 2, average EC50, cAMP) was 0.044 nM and the EC50 (human GIP R; [13]) was 0.015 nM.

B1: Compound 25 (peptide)
peptide: YAQGTFTSDYSKYLEKKAAKEFVEWLLSA
HELM: PEPTIDE1{Y.[Aib].Q.G.T.F.T.S.D.Y.S.K.Y.L.E.K.K.A.A.K.E.F.V.E.W.L.L.S.A.[am]}|PEPTIDE2{[CCCCCCCCCCCCCCCC(=O)[*:2]].[gGlu]}$PEPTIDE1,PEPTIDE2,12:R3-2:R2$$$V2.0
SMILES: CCCCCCCCCCCCCCCC(=O)N[C@@H](CCC(=O)NCCCC[C@H](NC(=O)[C@H](CO)NC(=O)[C@H](Cc1ccc(O)cc1)NC(=O)[C@H](CC(=O)O)NC(=O)[C@H](CO)NC(=O)[C@@H](NC(=O)[C@H](Cc1ccccc1)NC(=O)[C@@H](NC(=O)CNC(=O)[C@H](CCC(N)=O)NC(=O)C(C)(C)NC(=O)[C@@H](N)Cc1ccc(O)cc1)[C@@H](C)O)[C@@H](C)O)C(=O)N[C@@H](Cc1ccc(O)cc1)C(=O)N[C@@H](CC(C)C)C(=O)N[C@@H](CCC(=O)O)C(=O)N[C@@H](CCCCN)C(=O)N[C@@H](CCCCN)C(=O)N[C@@H](C)C(=O)N[C@@H](C)C(=O)N[C@@H](CCCCN)C(=O)N[C@@H](CCC(=O)O)C(=O)N[C@@H](Cc1ccccc1)C(=O)N[C@H](C(=O)N[C@@H](CCC(=O)O)C(=O)N[C@@H](Cc1c[nH]c2ccccc12)C(=O)N[C@@H](CC(C)C)C(=O)N[C@@H](CC(C)C)C(=O)N[C@@H](CO)C(=O)N[C@@H](C)C(N)=O)C(C)C)C(=O)O
For B1, the “EC50 (cAMP induction)” value (human GIP receptor [3]) was 250 pM, the “EC50 (cAMP induction)” value (human glucagon receptor [4]) was 300 pM and the “EC50 (cAMP induction)” value [5] was 280 pM. For the same molecule, the “EC50 (cAMP induction)” value (human GIP receptor [6]) was 250 pM, the “EC50 (cAMP induction)” value (human glucagon receptor [7]) was 300 pM and the “EC50 (cAMP induction)” value [8] was 280 pM.

B2: Compound 42 (peptide)
peptide: YXQGTFTSDYSIALDKKAQRAFVNWLVAXKPSSGAPPPS
modifications: X at 2 and 29 = Aib; Lys 17 as K(Octadecanoyl-isoGlu-Peg3-Peg3); C-terminal amide (-NH2)
In the case of B2, the EC50 (cAMP induction) [9] is reported as 36 pM, the EC50 (cAMP induction) [1] is reported as 15 pM and the EC50 (cAMP induction) [2] is reported as 32 pM.

B3: Compound 43 (peptide)
peptide: B2 peptide
modifications: X at 2 and 29 = Aib; Lys 17 as K(Octadecanoyl-Dapa-Peg3-Peg3); C-terminal amide (-NH2)
Molecule B3 has an EC50 (cAMP induction) [9] of 14 pM, an EC50 (cAMP induction) [1] of 9.8 pM and an EC50 (cAMP induction) [2] of 36 pM.

Molecule H-Y[Aib]QGTFTSDYSIYLEKK([Peg3-Peg3-γGlu-C18 diacid])AQRAFVEWLLRA-NH2 [Compound 51] has an EC50 (cAMP induction) [9] of 26 pM, an EC50 (cAMP induction) [1] of 33 pM and an EC50 (cAMP induction) [2] of 1400 pM.

B4: Compound 15 (peptide)
peptide: YXQGTFTSDYSIYLEKKAAHDFVEWLLSA
HELM: PEPTIDE1{Y.[Aib].Q.G.T.F.T.S.D.Y.S.I.Y.L.E.K.K.A.A.H.D.F.V.E.W.L.L.S.A.[am]}$$$$V2.0
SMILES: CC[C@H](C)[C@H](NC(=O)[C@H](CO)NC(=O)[C@H](Cc1ccc(O)cc1)NC(=O)[C@H](CC(=O)O)NC(=O)[C@H](CO)NC(=O)[C@@H](NC(=O)[C@H](Cc1ccccc1)NC(=O)[C@@H](NC(=O)CNC(=O)[C@H](CCC(N)=O)NC(=O)C(C)(C)NC(=O)[C@@H](N)Cc1ccc(O)cc1)[C@@H](C)O)[C@@H](C)O)C(=O)N[C@@H](Cc1ccc(O)cc1)C(=O)N[C@@H](CC(C)C)C(=O)N[C@@H](CCC(=O)O)C(=O)N[C@@H](CCCCN)C(=O)N[C@@H](CCCCN)C(=O)N[C@@H](C)C(=O)N[C@@H](C)C(=O)N[C@@H](Cc1c[nH]cn1)C(=O)N[C@@H](CC(=O)O)C(=O)N[C@@H](Cc1ccccc1)C(=O)N[C@H](C(=O)N[C@@H](CCC(=O)O)C(=O)N[C@@H](Cc1c[nH]c2ccccc12)C(=O)N[C@@H](CC(C)C)C(=O)N[C@@H](CC(C)C)C(=O)N[C@@H](CO)C(=O)N[C@@H](C)C(N)=O)C(C)C
Molecule B4 has an EC50 (cAMP induction) [10] of 16 pM, an EC50 (cAMP induction) [11] of 25 pM and an EC50 (cAMP induction) [9] of 58 pM. The EC50 (cAMP induction) [1] was 14 pM and the EC50 (cAMP induction) [2] was 58 pM.

In the case of H-Y[Aib]QGTFTSDLSIALEKK([Peg3-Peg3-γGlu-Stearoyl])AQRAFVEWLLAQK-NH2 [Compound 48], the EC50 (cAMP induction) [9] is reported as 13 pM, the EC50 (cAMP induction) [1] is reported as 13 pM and the EC50 (cAMP induction) [2] is reported as 190 pM.
